Where a chain is given by its changes, count along the chain named.
B1: mAb 287 (antibody, V domains shown)
VH: EVQLVESGGGVVRPGGSLRLSCAASGFTFDDYGMSWVRQAPGKGLEWVSGISWNGGSTGYADSVKGRFTISRDNAKNSLYLQMNSLRAEDTALYHCARDGVPVVKRRYYYYYMDVWGKGTTVTVSS
VL: EIVLTQSPDFQSVTPKEKVTITCRASQSIGSSLHWYQQKPDQSPKLLIKYASQSFSGVPSRFSGSGSGTDFTLTINSLEAEDAATYYCHQSASLPQTFGQGTKVEIK
notes: VH/VL only
B2: mAb 141 (antibody, V domains shown)
VH: QVQLVQSGAEVKKPGASVKVSCKASGYTFTSYYIHWVRQAPGQGLDWMGIINPSGGITGYAQKLQGRVTMTRDTSTTTVYMELSSLRSDDTAVYYCARGVRGNYYYYYMDVWGKGTTVTVSS
VL: B1 VL with S32K, T72N, Y86F, A92S, S93G, Q96Y, V104L
B3: mAb 145 (antibody, V domains shown)
VH: B2 VH with S31N, L64F
VL: B1 VL with S32K, Y50F, T72N, A80P, Y86F, A92S, S93G, Q96Y, V104L
B4: mAb 290 (antibody, V domains shown)
VH: B1 VH
VL: B1 VL with V19I
notes: VH/VL only
B5: mAb 286 (antibody, V domains shown)
VH: B1 VH with Q3K
VL: B1 VL with S65R, A92G
notes: VH/VL only
B6: mAb 136 (antibody, V domains shown)
VH: QVQLVESGGGVVQPGRSLRLSCAASGFTFSIYGMHWVRQAPGKGLEWVAVIWHDGSNKYYADSVKGRFTISRDNSKNTLYLQMNSLRAEDTAVYYCARTGITGTKAYFYFDYWGQGTLVTVSS
VL: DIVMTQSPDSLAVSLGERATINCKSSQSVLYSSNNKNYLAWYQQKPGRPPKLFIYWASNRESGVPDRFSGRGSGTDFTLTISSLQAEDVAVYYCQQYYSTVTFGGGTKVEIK
B7: mAb 142 (antibody, V domains shown)
VH: B6 VH with I31S, H53Y, K105T, Y112S
VL: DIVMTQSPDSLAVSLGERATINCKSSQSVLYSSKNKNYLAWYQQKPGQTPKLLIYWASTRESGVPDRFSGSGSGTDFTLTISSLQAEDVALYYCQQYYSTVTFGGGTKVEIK
B8: mAb 273 (antibody, V domains shown)
VH: EVQLVESGGGLVQPGESLKLSCTASGFTFSVSAIHWVRQASGKGLEWVGRIRSKANSYATAYVASVKGRFTLSRDDSKNTAYLQMNSLKTEDTAVYYCSSYYFVSGTYYNHWGQGTLVTVSS
VL: DIQMTQSPSSLSASVGDRVTITCRASQGIRYDLGWYQQKPGRAPKRLIHSVSSLQSGVPSRFSGSGSGTEFTLTISSLQPEDFATYYCLQHNVNPCTFGQGTKLEIK
notes: VH/VL only
B9: mAb 127 (antibody, V domains shown)
VH: EVQLVESGGGLVKTGGSHRLSCVASGFSFKKAWMNWVRQAPGKGLEWVGRIKRNSDGGTTDYAAPVKGRFILSRDDSKNTLYLQMNSLKTEDTAVYYCTTLDSSSWYVGYYYMDVWGKGTTVTVSS
VL: DIQMTQSPSSVSASVGDRVTITCRASQDINNWLAWYQQKPGKAPKILIYTASNLQSGVPSRFSGSGSGTDFTLTISTLQPEDFATYFCQQAHGLPITFGQGTRLEIK
B10: mAb 129 (antibody, V domains shown)
VH: B9 VH with G10D, H18L, S55T, T59A, G68D, I71T
VL: DIHMTQSPSSVSASLGDRVTFTCRASQDINNWLAWYQQKPGKAPRLLIYTASSLQSGVPSRFSGSGSGTDFTLTISSLQPDDFATYYCQQAHSLPITFGQGTRLGIE
B11: mAb 130 (antibody, V domains shown)
VH: B9 VH with H18L, T59A, G68D, I71T
VL: B10 VL with K39R, R45K, D81E, E107K
B12: mAb 172 (antibody, V domains shown)
VH: EVQLVESGGGLVQPGRSLRLSCTTSGFTFDDYTMHWVRQVPGKGLEWVSDISWNSGSVGYADSVKGRFTISRDNAKNSLYLQMNSLRAEDTALYYCVKDSSGYGHYFHYYMDVWGKGTTVTVSS
VL: DIQMTQSPSSLSASVGDRVTITCRASQSISNYLNWYQVKPGKAPKVLIYAASSLQSGVPSRFSGSGSGTDFTLTISSLQPEDFVSYYCHQSYNAPITFGQGTRLESK
notes: VH/VL only
B13: mAb 173 (antibody, V domains shown)
VH: B12 VH with T23A, T24A
VL: B12 VL with A94T, S106I
notes: VH/VL only
B14: mAb 285 (antibody, V domains shown)
VH: EVQLLESGGGLGQPGGSLRLSCAASGFTFSNYAMSWVRQAPGKGLEWVSVISGSGGDKNYADSVKGRFTISRDNSKNTLYLQMNSLRAEDTAVYYCAKKYSYYYYYMDVWGKGTTVTVSS
VL: SYELTQPLSVSVALGQTARITCGGNNIGSKDVHWYQQKPGQAPVLVIYRDSNRPSGIPERFSGSNSGNTATLTISSAQAGDEADYYCQVWDSRTAVFGGGTQLTAL
notes: VH/VL only
B15: mAb 119 (antibody, V domains shown)
VH: EVQLVESGGGLVQPGRSLRLSCAASGFTFDDYTMHWVRQAPGKGLEWVSGISWNSGSIGYADSVKGRFTISRDNAKNSLYLQMNSLRAEDTALYYCSKDSSGYGYYLNYSLDVWGKGTTVTVSS
VL: EIVMTQSPATLSVSPGERATLSCRASQSVSNLAWYQQKPGQAPRLLIYGASTRATGIPARFSGSGSGTEFTLTISSLQSEDFAVYYCQQYNNWPHFGQGTRLQIK
B16: mAb 170 (antibody, V domains shown)
VH: B15 VH with Q13R
VL: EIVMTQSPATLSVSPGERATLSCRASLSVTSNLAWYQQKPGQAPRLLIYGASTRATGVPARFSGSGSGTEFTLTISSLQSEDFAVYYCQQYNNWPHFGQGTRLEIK
notes: VH/VL only
B17: mAb 137 (antibody, V domains shown)
VH: QVQLVESGGGVVQPGRSLRLSCAASGFTFSTYGMHWVRQAPGKGLEWVAVIWYDGSHKYYADSVKGRFTISRDNSKKTLYLQMNSLRAEDTGIYYCARTGISGNMSYFYFDHWGQGILVTVSS
VL: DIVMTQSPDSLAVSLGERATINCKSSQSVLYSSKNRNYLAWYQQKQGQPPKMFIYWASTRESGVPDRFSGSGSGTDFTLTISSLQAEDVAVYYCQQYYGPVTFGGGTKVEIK
B18: mAb 174 (antibody, V domains shown)
VH: EVQLVESGGGLVQPGGSLRLSCAASGFTFSSNWMSWVRQAPGKGLEWVANIKQDGSEKYSVDSVKGRFTISRDNAKNSLYLQMNSLRAEDTAVYYCARDRSRNYYWYFDLWGRGTLVTVSS
VL: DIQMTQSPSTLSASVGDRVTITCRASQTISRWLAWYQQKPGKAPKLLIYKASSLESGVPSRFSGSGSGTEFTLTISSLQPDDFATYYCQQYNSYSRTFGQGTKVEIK
notes: VH/VL only
B19: mAb 175 (antibody, V domains shown)
VH: B18 VH with Q3E, S60Y, Q82K, R100C, R102S, Y104W
VL: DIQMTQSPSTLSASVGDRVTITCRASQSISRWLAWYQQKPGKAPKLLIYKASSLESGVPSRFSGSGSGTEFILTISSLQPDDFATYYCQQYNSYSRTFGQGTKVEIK
notes: VH/VL only

Legend:
[1] = biological target: T1, human CD3 expressed on cells (Jurkat cells; human primary T cells) (human, UniProt P07766 23-207; P04234 22-171; P09693 23-182); assay: flow cytometry, 25 nM, Jurkat cells
T1 construct: whole, on cells
T1 sequence (P07766 23-207, chain 1 of 3): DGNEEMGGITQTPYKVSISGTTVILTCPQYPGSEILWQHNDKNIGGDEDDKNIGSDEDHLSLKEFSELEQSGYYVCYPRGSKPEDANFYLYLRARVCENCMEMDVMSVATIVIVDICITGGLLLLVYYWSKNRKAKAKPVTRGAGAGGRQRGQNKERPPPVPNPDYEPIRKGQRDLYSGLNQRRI
T1 sequence (P04234 22-171, chain 2 of 3): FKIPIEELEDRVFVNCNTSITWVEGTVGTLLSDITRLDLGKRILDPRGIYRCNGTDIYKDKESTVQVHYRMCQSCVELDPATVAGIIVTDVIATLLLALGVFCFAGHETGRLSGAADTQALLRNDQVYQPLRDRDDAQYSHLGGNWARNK
T1 sequence (P09693 23-182, chain 3 of 3): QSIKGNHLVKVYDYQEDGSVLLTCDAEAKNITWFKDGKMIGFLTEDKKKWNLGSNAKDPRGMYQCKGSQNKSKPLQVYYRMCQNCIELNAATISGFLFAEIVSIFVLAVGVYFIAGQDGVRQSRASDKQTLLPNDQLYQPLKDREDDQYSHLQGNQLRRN
Experimental: (§1) Purified antibodies were confirmed to bind CD3 expressed on cells using the CytoFLEX S or LX flow cytometers (Beckman Coulter). Antibodies were diluted to 25 nM in FACS buffer (PBS+2% FBS) and were incubated with CD3-expressing cells for 30 minutes at 4° C. […] The median fluorescence intensity of the binding signal for each antibody was normalized to the isotype control to obtain a fold over isotype value. An antibody with a fold over isotype (FOI) of ≥10 was considered to be positive for binding.

[2] = biological target: T2, cynomolgus monkey CD3 expressed on cyno primary T cells (cynomolgus monkey, UniProt Q95LI5 22-198; Q95LI8 22-171; Q95LI7 23-181); assay: flow cytometry, cyno primary T cells
T2 construct: whole, on cells; CD3 complex on purified cynomolgus monkey CD3 pan T cells; also called cyno CD3
T2 sequence (Q95LI5 22-198, chain 1 of 3): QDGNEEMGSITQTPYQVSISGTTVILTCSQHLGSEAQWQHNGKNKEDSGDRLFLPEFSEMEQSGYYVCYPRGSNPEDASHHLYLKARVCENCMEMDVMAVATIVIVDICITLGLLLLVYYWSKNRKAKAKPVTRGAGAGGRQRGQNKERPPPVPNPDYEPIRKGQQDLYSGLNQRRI
T2 sequence (Q95LI8 22-171, chain 2 of 3): as the sequence (P04234 22-171, chain 2 of 3) above, with I5V, N15K, I20V, S32T, D33N, I34N, T64A, S74N, V83L, H141R counted along it
T2 sequence (Q95LI7 23-181, chain 3 of 3): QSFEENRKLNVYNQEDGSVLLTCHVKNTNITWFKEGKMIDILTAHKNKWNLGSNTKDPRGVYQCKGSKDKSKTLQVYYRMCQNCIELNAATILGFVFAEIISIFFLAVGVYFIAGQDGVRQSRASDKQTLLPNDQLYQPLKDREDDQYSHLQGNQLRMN
Outline: (§2)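 Flow cytometric binding was measured after cells were incubated with antibody (25 nM, PBS+2% FBS) at 4° C for 30 minutes. Signals were normalized to isotype to yield FOI, with ≥10 scored positive.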

[3] = biological target: T1, human CD3 expressed on cells (Jurkat …); assay: flow cytometry, 25 nM, human primary T cells
Experimental: as §1

[4] = biological target: T3, human CD3 expressed on cells (human, UniProt P07766 23-207; P04234 22-171; P09693 23-182); assay: flow cytometry, 25 nM
T3 construct: whole, on cells; CD3 complex on Jurkat cells and on human primary T cells
T3 sequence (P07766 23-207, chain 1 of 3): as the sequence (P07766 23-207, chain 1 of 3) above
T3 sequence (P04234 22-171, chain 2 of 3): as the sequence (P04234 22-171, chain 2 of 3) above
T3 sequence (P09693 23-182, chain 3 of 3): as the sequence (P09693 23-182, chain 3 of 3) above
Outline: as §2

[5] = biological target: T4, cynomolgus monkey CD3 expressed on primary T cells (cynomolgus monkey, UniProt Q95LI5 22-198; Q95LI8 22-171; Q95LI7 23-181); assay: flow cytometry, 25 nM, cyno primary T cells
T4 construct: whole, on cells; CD3 complex on purified cynomolgus monkey T cells; also called cyno CD3
T4 sequence (Q95LI5 22-198, chain 1 of 3): as the sequence (Q95LI5 22-198, chain 1 of 3) above
T4 sequence (Q95LI8 22-171, chain 2 of 3): as the sequence (P04234 22-171, chain 2 of 3) above, with I5V, N15K, I20V, S32T, D33N, I34N, T64A, S74N, V83L, H141R counted along it
T4 sequence (Q95LI7 23-181, chain 3 of 3): as the sequence (Q95LI7 23-181, chain 3 of 3) above
Outline: as §2

Row | Binder | Binding (FOI) [1] [FOI] | binding result [2] | Binding (FOI) [3] [FOI] | Human primary T Cell Binding (FOI) [4] [FOI] | Jurkat Cell Binding (FOI) [4] [FOI] | binding result [5]
1 | B1 | 156 | no binding (tested: FOI <10 (FOI >=10 = positive); 25 nM) | 107 |  |  | 
2 | B2 |  |  |  | 310 | 183 | no binding (tested: FOI >=10 = positive)
3 | B3 |  |  |  | 217 | 191 | no binding (tested: FOI >=10 = positive)
4 | B4 | 135 | no binding (tested: FOI <10 (FOI >=10 = positive); 25 nM) | 99.8 |  |  | 
5 | B5 | 232 | no binding (tested: FOI <10 (FOI >=10 = positive); 25 nM) | 185 |  |  | 
6 | B6 |  |  |  | 86 | 90.9 | no binding (tested: FOI >=10 = positive)
7 | B7 |  |  |  | 59.6 | 65.5 | no binding (tested: FOI >=10 = positive)
8 | B8 | 53.1 |  | 24.2 |  |  | 
9 | B9 |  |  |  | 172 | 155 | no binding (tested: FOI >=10 = positive)
10 | B10 |  |  |  | 169 | 157 | no binding (tested: FOI >=10 = positive)
11 | B11 |  |  |  | 165 | 155 | no binding (tested: FOI >=10 = positive)
12 | B12 | 111 |  | 167 |  |  | 
13 | B13 | 109 |  | 169 |  |  | 
14 | B14 | 232 | no binding (tested: FOI <10 (FOI >=10 = positive); 25 nM) | 229 |  |  | 
15 | B15 |  |  |  | 95.4 | 90.4 | no binding (tested: FOI >=10 = positive)
16 | B16 | 117 | no binding (tested: FOI <10 (FOI >=10 = positive); 25 nM) | 120 |  |  | 
17 | B17 |  |  |  | 158 | 151 | no binding (tested: FOI >=10 = positive)
18 | B18 | 130 | no binding (tested: FOI <10 (FOI >=10 = positive); 25 nM) | 231 |  |  | 
19 | B19 | 96.6 | no binding (tested: FOI <10 (FOI >=10 = positive); 25 nM) | 118 |  |  | 

— US20230295310A1 (ABCELLERA BIOLOGICS, published 2023)
